T1: Flt3(D835Y)(h) (human, UniProt P36888 564-993, limits assumed)
T1 sequence (looked up): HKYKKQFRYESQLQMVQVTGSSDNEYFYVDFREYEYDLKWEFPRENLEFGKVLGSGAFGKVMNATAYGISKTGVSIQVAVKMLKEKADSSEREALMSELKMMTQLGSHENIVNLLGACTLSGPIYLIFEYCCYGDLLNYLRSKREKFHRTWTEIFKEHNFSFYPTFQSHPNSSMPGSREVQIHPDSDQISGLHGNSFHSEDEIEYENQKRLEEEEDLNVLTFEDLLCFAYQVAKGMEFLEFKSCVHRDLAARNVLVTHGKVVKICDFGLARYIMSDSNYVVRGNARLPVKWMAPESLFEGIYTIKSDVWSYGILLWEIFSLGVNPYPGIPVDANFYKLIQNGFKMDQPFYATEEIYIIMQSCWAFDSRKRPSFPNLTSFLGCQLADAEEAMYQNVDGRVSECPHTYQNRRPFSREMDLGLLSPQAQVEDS

T2: NEK3(h) (human, UniProt P51956 1-506, limits assumed)
T2 sequence (looked up): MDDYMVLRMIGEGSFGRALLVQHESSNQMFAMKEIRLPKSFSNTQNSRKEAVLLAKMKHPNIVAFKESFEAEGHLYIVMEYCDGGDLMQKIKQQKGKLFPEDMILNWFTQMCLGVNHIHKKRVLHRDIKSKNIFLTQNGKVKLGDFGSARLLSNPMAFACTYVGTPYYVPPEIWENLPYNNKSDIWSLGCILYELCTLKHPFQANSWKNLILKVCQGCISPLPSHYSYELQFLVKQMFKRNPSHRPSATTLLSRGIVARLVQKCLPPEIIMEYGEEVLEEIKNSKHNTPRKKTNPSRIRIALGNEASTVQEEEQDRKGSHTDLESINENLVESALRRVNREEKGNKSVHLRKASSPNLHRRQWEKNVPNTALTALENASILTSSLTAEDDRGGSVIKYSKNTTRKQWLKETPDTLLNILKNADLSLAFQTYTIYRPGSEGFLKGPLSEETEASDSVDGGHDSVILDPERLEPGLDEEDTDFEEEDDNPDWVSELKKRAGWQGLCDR

T3: Ret(V804M)(h) (human, UniProt P07949 658-1114, limits assumed)
T3 sequence (looked up): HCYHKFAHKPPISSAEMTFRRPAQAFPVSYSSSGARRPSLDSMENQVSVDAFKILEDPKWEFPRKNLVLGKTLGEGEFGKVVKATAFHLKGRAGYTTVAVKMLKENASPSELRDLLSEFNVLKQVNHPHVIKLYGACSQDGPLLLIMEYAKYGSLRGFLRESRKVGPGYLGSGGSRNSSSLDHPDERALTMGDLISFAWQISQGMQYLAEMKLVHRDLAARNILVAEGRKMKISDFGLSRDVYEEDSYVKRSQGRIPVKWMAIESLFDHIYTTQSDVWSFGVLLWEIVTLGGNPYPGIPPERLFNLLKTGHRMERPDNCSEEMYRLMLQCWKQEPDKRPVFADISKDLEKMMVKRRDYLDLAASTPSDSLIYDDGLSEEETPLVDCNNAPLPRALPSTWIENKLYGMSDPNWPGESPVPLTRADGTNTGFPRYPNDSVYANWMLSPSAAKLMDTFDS

T4: DYRK2(h) (human, UniProt Q92630 1-601, limits assumed)
T4 sequence (looked up): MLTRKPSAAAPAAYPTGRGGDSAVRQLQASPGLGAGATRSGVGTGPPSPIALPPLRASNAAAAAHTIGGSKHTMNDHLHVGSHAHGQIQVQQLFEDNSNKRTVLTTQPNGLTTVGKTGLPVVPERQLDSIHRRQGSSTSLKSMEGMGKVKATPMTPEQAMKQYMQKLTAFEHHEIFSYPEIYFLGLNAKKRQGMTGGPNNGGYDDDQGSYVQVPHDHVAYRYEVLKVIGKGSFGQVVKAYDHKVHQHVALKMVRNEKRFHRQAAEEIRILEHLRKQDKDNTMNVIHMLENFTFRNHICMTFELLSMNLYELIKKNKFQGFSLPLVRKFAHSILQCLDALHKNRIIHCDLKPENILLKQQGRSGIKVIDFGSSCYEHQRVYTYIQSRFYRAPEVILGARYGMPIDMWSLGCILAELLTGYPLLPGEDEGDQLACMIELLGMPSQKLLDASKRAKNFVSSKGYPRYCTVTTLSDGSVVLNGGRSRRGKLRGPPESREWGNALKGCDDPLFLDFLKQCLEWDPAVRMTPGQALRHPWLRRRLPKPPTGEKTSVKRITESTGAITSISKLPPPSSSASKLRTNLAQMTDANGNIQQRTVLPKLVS


Key:
Test in all cases: cell-based or functional assay
Ab1(T315I)(h) = Ab1(T315I)(h) (human, UniProt P00519 27-1130, limits assumed)
Chain of Ab1(T315I)(h) (P00519 27-1130 T315I limits assumed): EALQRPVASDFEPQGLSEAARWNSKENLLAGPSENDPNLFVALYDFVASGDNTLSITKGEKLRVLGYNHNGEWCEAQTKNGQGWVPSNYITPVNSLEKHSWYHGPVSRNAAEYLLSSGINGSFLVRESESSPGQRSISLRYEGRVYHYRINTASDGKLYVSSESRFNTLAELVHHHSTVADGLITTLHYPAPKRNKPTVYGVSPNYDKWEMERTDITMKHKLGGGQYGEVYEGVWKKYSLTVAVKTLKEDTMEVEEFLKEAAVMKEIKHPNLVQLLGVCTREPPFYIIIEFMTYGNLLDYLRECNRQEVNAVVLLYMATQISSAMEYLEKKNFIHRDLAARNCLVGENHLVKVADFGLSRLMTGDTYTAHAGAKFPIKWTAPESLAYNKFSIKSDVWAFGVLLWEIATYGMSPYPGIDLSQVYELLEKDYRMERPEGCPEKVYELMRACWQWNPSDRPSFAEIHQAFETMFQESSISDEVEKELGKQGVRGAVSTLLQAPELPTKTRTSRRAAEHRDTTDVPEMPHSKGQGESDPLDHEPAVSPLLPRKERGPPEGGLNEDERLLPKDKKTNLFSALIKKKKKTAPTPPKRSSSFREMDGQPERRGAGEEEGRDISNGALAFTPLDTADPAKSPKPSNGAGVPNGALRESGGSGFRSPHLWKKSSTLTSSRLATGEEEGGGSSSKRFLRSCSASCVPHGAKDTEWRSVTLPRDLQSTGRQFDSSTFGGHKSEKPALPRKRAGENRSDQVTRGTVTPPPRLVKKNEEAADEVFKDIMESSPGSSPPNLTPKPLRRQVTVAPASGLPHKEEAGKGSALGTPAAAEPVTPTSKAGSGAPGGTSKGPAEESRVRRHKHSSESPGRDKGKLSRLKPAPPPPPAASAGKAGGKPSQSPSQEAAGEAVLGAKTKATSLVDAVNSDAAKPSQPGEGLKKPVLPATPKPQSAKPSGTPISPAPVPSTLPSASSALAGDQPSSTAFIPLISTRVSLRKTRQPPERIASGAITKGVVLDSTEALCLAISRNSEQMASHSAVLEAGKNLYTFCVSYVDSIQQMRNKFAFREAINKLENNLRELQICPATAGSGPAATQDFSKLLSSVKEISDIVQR

Flt3(D835Y)(h) = biological target: T1, Flt3(D835Y)(h)
Lck(h) activated = Lck(h) activated (human, UniProt P06239 1-509, limits assumed)
Chain of Lck(h) activated (P06239 whole entry): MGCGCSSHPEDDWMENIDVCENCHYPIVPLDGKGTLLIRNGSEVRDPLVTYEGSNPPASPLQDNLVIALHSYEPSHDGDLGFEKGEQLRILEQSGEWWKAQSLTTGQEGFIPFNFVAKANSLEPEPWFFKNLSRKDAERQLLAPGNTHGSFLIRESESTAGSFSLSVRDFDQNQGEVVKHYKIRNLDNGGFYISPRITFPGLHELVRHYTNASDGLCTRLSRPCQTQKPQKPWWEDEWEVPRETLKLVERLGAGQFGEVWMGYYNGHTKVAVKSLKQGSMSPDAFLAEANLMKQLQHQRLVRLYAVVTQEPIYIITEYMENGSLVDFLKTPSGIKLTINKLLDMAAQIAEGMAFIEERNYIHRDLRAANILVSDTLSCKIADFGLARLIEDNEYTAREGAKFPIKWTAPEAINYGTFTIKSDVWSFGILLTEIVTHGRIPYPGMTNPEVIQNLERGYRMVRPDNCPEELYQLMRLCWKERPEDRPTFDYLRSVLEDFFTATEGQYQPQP

MAPKAP-K2(h) = MAPKAP-K2(h) (human, UniProt P49137 46-400)
Chain of MAPKAP-K2(h) (P49137 46-400 limits assumed): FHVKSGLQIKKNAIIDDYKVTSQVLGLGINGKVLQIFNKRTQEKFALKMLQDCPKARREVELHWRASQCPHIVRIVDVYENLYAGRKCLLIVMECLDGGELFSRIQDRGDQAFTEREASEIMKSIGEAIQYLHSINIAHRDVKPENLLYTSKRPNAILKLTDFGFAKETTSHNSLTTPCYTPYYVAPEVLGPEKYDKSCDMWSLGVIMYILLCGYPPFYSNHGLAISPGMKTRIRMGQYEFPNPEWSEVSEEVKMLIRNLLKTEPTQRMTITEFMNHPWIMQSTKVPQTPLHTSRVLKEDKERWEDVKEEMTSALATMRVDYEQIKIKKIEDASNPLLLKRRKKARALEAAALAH

Met(h) = Met(h) (human, UniProt P08581 956-1390, limits assumed)
Met(Y1248C)(h) = Met(Y1248C)(h) (human, UniProt P08581-2 974-1408, limits assumed)
NEK3(h) = biological target: T2, NEK3(h)
p70S6K(h) = p70S6K(h) (human, UniProt P23443 1-421, limits assumed)
Chain of p70S6K(h) (P23443 1-421 limits assumed): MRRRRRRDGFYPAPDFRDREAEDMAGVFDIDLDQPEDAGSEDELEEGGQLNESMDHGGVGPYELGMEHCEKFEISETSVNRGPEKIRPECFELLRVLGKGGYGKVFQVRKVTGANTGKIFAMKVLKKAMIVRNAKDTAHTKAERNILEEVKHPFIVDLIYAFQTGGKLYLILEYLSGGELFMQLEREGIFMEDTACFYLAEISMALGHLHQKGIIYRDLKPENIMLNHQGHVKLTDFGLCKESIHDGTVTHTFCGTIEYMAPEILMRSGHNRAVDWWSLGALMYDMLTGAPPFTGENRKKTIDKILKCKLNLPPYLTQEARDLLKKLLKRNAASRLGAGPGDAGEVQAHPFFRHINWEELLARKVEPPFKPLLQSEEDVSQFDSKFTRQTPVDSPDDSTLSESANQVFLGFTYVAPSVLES

Pim-1(h) = Pim-1(h) (human, UniProt P11309 1-313)
Chain of Pim-1(h) (P11309 whole entry): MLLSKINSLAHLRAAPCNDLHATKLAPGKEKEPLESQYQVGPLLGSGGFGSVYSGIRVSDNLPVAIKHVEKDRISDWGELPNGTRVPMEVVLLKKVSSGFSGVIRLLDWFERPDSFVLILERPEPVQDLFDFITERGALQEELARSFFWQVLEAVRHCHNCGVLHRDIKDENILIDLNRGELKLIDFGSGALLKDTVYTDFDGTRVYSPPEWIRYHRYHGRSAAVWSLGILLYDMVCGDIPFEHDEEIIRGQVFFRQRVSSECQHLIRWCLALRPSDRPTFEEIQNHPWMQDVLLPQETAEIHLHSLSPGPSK

PKCγ(h) = PKCγ(h) (human, UniProt P05129 1-697)
PKCτ(h) = PKCτ(h) (human)
Ret(V804M)(h) = biological target: T3, Ret(V804M)(h)
TrkB(h) = TrkB(h) (human, UniProt Q16620 455-822, limits assumed)
Chain of TrkB(h) (Q16620 455-822 limits assumed): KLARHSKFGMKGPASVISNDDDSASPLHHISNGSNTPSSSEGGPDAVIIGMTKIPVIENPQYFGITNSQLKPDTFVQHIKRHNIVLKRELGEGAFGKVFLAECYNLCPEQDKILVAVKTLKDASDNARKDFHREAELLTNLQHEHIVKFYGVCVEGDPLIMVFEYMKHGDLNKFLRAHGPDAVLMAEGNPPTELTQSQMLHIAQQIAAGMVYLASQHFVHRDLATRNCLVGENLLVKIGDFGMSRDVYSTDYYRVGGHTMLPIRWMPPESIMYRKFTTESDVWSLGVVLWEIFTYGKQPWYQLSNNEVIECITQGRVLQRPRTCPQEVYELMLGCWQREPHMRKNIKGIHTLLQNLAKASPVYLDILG

CDK2/cyclinE(h) = CDK2/cyclinE(h) (human, UniProt P24941 1-298; P24941 1-298)
DYRK2(h) = biological target: T4, DYRK2(h)
FGFR1(h) = FGFR1(h) (human, UniProt P11362 456-765, limits assumed)
Chain of FGFR1(h) (P11362 456-765 limits assumed): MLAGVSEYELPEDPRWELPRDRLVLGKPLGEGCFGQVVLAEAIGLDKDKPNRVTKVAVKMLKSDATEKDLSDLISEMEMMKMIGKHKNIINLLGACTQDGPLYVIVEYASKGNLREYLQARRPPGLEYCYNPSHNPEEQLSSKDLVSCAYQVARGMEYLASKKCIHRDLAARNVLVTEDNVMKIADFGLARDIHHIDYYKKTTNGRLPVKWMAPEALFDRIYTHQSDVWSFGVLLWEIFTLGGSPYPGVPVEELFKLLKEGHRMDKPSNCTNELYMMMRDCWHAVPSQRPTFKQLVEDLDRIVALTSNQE
Note: test concentration or dose not given here.

| % activity (Ab1(T315I)(h)) | % activity (Flt3(D835Y)(h)) | % activity (Lck(h) activated) | % activity (MAPKAP-K2(h)) | % activity (Met(h)) | % activity (Met(Y1248C)(h)) | % activity (NEK3(h)) | % activity (p70S6K(h)) | % activity (Pim-1(h)) | % activity (PKCγ(h)) | % activity (PKCτ(h)) | % activity (Ret(V804M)(h)) | % activity (TrkB(h)) | % activity (CDK2/cyclinE(h)) | % activity (DYRK2(h)) | % activity (FGFR1(h)) | Binder |
| --- | --- | --- | --- | --- | --- | --- | --- | --- | --- | --- | --- | --- | --- | --- | --- | --- |
| 105% | 71% | 216% | 5% | 62% | 36% | 85% | 33% | 7% | 79% | 46% | 87% | 8% | 83% | 195% | 59% | KAFAKLAARLYRKALARQLGVAA [MMI-0400] |
| 97% | 80% | 243% | 5% | 65% | 84% | 92% | 35% | 8% | 89% | 68% | 95% | 5% | 94% | 155% | 55% | FAKLAARLYRKALARQLGVAA [MMI-0300] |

Reference: patent US20160200782A1 (MOERAE MATRIX, published 2016)
